Some targets named below: 1433t_human YWHAQ (UniProt P27348); 1433b_human YWHAB (UniProt P31946); 1433e_human YWHAE (UniProt P62258); 1433g_human YWHAG (UniProt P61981); 1433f_human YWHAH (UniProt Q04917); 1433z_human YWHAZ (UniProt P63104).

We go through 1 substance from IntAct's records for PubMed 36096339.

UniProt P61981, sequence (P61981 whole entry): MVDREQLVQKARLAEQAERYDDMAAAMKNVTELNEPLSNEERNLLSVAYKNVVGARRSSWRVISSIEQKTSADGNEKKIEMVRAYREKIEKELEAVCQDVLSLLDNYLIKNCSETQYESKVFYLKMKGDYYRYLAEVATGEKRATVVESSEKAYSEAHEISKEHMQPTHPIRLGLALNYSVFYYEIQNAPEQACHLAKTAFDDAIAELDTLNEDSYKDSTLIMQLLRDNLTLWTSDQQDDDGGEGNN
UniProt P62258, sequence (P62258 whole entry): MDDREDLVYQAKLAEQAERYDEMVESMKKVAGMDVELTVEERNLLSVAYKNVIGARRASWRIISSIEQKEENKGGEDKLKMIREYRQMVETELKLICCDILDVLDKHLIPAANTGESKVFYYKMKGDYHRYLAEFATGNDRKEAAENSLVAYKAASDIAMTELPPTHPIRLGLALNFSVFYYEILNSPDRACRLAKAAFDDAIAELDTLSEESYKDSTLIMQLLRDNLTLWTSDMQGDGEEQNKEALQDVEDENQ
UniProt P31946, sequence (P31946 whole entry): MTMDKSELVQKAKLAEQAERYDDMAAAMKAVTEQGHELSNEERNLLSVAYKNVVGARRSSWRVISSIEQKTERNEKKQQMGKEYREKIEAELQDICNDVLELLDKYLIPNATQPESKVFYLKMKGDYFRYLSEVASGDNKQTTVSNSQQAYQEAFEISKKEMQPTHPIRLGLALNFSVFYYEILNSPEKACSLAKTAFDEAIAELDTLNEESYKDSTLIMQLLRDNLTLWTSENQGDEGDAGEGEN
UniProt P27348, sequence (P27348 whole entry): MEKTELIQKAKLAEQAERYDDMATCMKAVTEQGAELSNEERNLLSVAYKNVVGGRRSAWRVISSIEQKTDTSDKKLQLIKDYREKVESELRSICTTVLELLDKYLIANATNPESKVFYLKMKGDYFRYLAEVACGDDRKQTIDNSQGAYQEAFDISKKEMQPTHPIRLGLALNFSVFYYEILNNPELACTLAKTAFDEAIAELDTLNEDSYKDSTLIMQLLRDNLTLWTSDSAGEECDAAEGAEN
UniProt Q04917, sequence (Q04917 whole entry): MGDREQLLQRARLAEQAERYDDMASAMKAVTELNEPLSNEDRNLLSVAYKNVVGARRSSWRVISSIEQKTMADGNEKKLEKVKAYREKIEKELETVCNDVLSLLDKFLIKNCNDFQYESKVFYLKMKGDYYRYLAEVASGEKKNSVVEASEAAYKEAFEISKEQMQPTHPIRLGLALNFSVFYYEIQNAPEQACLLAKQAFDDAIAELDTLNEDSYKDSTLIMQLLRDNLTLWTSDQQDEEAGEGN
UniProt P63104, sequence (P63104 whole entry): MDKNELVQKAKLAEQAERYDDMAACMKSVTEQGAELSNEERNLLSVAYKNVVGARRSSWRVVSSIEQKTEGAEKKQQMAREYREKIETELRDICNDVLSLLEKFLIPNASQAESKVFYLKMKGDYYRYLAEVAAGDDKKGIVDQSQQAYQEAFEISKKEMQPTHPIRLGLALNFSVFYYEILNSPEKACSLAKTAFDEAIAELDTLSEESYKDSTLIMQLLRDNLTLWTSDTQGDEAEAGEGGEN

For the substance Spatacsin (Homo sapiens), Q96JI7 S1955A, the “effect of a mutation on the interaction” value with 1433t_human YWHAQ is “decreasing interaction strength”; with 1433b_human YWHAB it was “decreasing interaction strength”; with 1433e_human YWHAE it was “with no effect”; in the assay with 1433g_human YWHAG it was “decreasing interaction strength”; in the assay with 1433f_human YWHAH, “decreasing interaction strength”; with 1433z_human YWHAZ, “decreasing interaction strength”.
